diamino‑ethyl = ethylenediamine linker to Bodipy FL
How the values were obtained:
Type in all cases: biochemical
[1] = test system: human pancreatic α-chymotrypsin; test: Detection of chymotrypsin activity in whole rat blood or 1×PBS using NCDPS substrate; settings: 1×PBS or whole rat blood, 1 h incubation, α-chymotrypsin stocks 2, 0.4, 0.08, 0 mg/ml
Procedure: In this experiment 7 μl of 1× phosphate buffered saline (PBS) at pH 7.8 or 7 μl of whole rat blood were mixed with the following: 7 μl of 1 mg/ml Acetyl-N-[…]Bodipy FL (SEQ ID NO:26) in 1×PBS pH 7.8; 0.4 μl of 2 M CaCl2; and 0.5 μl of the following concentrations 2 mg/ml, 0.4 mg/ml, 0.08 mg/ml and 0 mg/ml of human pancreatic α-chymotrypsin. The mixtures were incubated for 1 hour and then 6 μl of sample was loaded into the wells of a 4% high resolution agarose gel. The five wells on the left-hand side were loaded with 1×PBS samples and the five wells on the right right-hand side were loaded with the whole rat blood samples. Electrophoresis was performed for 30 minutes at 80 V and then the gel was imaged using a BioDoc-It® System with a Model M-26 transilluminator (UVP, Upland, Calif.). The upper FIG. 26A show the gel before the electric field was applied and the quenching of fluorescent signal from NCDPS substrate by the blood samples can clearly be seen in the five wells on the […] side. This sensitivity-reducing quenching issue would occur for many of the current types of fluorescent enzyme assays utilizing classical fluorogenic substrates. As a result, these latter methods typically require considerable sample preparation, which is time-consuming and makes the measurements less accurate, in order to recover fluorescent signal.

[2] = target: T1, bovine pancreatic trypsin (Bos taurus, UniProt P00760); test: Detection of trypsin in human plasma using NCDPS; settings: un-diluted human plasma, 1 h reaction
T1 construct: from tissue; host or cells: bovine pancreas (lyophilized enzyme)
T1 sequence (P00760 24-246): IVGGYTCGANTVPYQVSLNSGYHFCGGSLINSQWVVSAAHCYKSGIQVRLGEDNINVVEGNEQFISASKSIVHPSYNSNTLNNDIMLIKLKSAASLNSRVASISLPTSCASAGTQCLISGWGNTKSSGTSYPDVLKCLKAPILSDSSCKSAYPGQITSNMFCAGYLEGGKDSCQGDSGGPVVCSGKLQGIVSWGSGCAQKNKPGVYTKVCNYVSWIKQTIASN
Procedure: (§1) In this example a 1 mg/ml (650 μM) stock solution of the peptide substrate was prepared from lyophilized Ac-N-[…]diamino-ethyl-Bodipy FL (MW 1537.4) (SEQ ID NO:29) by dissolving the peptide in 1×PBS at pH 7.8. […] Both proteases were serially diluted in 1 mM HCl in order to obtain the desired concentrations. A solution of 486 μg/ml (316 μM) of the Ac-N-[…]diamino-ethyl-Bodipy FL peptide was prepared in un-diluted human plasma. Aliquots of 14.4 μl of the peptide plasma solution were mixed with 1 μl aliquots of various concentrations of the proteases or 1 ul of 1 mM HCl for the negative control and then allowed to react for one hour. Samples of about 6 μl each containing 3 μg (300 μM) of the substrate with protease concentrations that ranged from 500 nM (lanes 1-2), 100 nM (lanes 3-4), 50 nM (lanes 5-6), 30 nM (lanes 7-8), 20 nM (lanes 9-10) or 0 nM (lanes 11-12) were loaded into the wells of a 4% high resolution agarose gel in 0.5×TBE. […] Gels were then quantified with a Storm 480 gel scanner using ImageQuant v5.2 (Molecular Dynamics, Sunnyvale, Calif.) (fluorescence mode, high sensitivity, 100 μm pixel size, 1000V photomultiplier tube) with a 450 nm excitation filter and a 520 nm long pass emission filter. […]

[3] = target: T2, bovine pancreatic α-chymotrypsin (Bos taurus, UniProt P00766); test: Detection of α-chymotrypsin in 1×PBS buffer using NCDPS, agarose gel electrophoresis; settings: 1×PBS pH 7.8, 300 μM substrate, 1 h reaction
T2 construct: from tissue; host or cells: bovine pancreas (lyophilized enzyme)
Procedure: (§2) In this experiment a 1 mg/ml (650 μM) stock solution of the NCDPS substrate Ac-N-[…]diamino-ethyl-Bodipy FL (SEQ ID NO:29) (MW 1537.4) was prepared by dissolving the peptide in 1× phosphate buffered saline (PBS) at pH 7.8. […] Both proteases were serially diluted in 1 mM HCl in order to obtain the desired concentrations. A solution of 486 μg/ml (316 μM) of the Ac-N-[…]diamino-ethyl-Bodipy FL peptide was prepared in 1×PBS (pH 7.8). Aliquots of 14.4 μl of the […] peptide solution (1×PBS) were mixed with 1 μl aliquots of various concentrations of the proteases or 1 ul of 1 mM HCl for the negative control, and then allowed to react for one hour. 6 μl samples containing 3 μg (300 μM) of the substrate with protease concentrations ranging from 500 nM (lanes 1-2), 100 nM (lanes 3-4), 50 nM (lanes 5-6), 30 nM (lanes 7-8), 20 nM (lanes 9-10) or 0 nM (lanes 11-12) were loaded into the wells of a 4% high resolution agarose gel run in 0.5×TBE. […] Gels were then quantified with a Storm 480 gel scanner using ImageQuant v5.2 (Molecular Dynamics, Sunnyvale, Calif.) (fluorescence mode, high sensitivity, 100 μm pixel size, 1000V photomultiplier tube) with a 450 nm excitation filter and a 520 nm long pass emission filter. […]

[4] = target: T1, bovine pancreatic trypsin; test: Detection of trypsin in 1×PBS buffer using NCDPS, agarose gel electrophoresis; settings: 1×PBS pH 7.8, 300 μM substrate, 1 h reaction
Procedure: as §2

[5] = target: T2, bovine pancreatic α-chymotrypsin; test: Detection of α-chymotrypsin in human plasma using NCDPS; settings: un-diluted human plasma, 1 h reaction
Procedure: as §1

Substance | cleavage products on gel after electrophoresis (FIG. 26B) [1] | detection level by inspection of gel (FIG. 22) [2] | detection level by inspection of gel (FIG. 20) [3] | detection level by inspection of gel (FIG. 20) [4] | detection level by inspection of gel (FIG. 22) [5]
Acetyl-N-Asp-Gly-Asp-Ala-Gly-Tyr-Ala-Gly-Leu-Arg-Gly-Ala-Gly-Bodipy FL (Ac-DGDAGYAGLRGAG-{Bodipy FL}) | appearance of cleavage products in the first three 1×PBS samples and in the blood samples |  |  |  | 
Ac-N-Asp-Gly-Asp-Ala-Gly-Tyr-Ala-Gly-Leu-Arg-Gly-Ala-Gly-diamino-ethyl-Bodipy FL (Ac-DGDAGYAGLRGAG-{diamino‑ethyl-Bodipy FL}) [SEQ ID NO:29, NCDPS substrate for chymotrypsin and trypsin, net charge −1] |  | about 20 nM | about 20 nM | about 30 nM | about 20 nM

Source: patent US9222119B2, “Detection of degradative enzymes and biomolecules in bodily fluids” (The Regents of the University of California, priority 2008, dated 2015)
